Data taken from article PMC5655542, “HpARI Protein Secreted by a Helminth Parasite Suppresses Interleukin-33” (Immunity, 2017).

Target: T1, H. polygyrus Alarmin Release Inhibitor (HpARI), recombinant mature 6-His and Myc-tagged protein (Heligmosomoides polygyrus)
T1 construct: HpARI, Heligmosomoides polygyrus; 251-aa protein including a 16-aa signal peptide; the mature protein (26 kDa, three CCP-like modules) was expressed; the CCP1/2 construct starts at amino acid 17; Codon-optimised synthetic gene cloned with AscI and NotI into pSecTAG2A; also called candidate D; not shown: myc, C-terminal, kept; His6, C-terminal, kept
T1 sequence (A0A3P7XL18 63-297): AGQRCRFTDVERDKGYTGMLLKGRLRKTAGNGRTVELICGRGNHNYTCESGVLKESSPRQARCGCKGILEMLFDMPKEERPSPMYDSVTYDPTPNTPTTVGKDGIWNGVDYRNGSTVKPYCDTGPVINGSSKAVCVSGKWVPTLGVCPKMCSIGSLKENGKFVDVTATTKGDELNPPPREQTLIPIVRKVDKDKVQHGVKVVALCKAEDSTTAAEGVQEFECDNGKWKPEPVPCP
Assay: SPR; BIAcore T200; HpARI captured via its 6-His tag on a Ni2+-NTA chip to 400 RU; cytokine injected (mIL-33 6.2-167 nM, hIL-33 0.062-1.67 μM); 25°C; 10 mM NaH2PO4 pH 7.5, 150 mM NaCl, 50 μM EDTA, 0.05% surfactant P20; single kinetic titration, global 1:1 fit
Details: both partners purified

B1: recombinant murine IL-33, untreated (reduced, active form) (ligand)
chain: SIQGTSLLTQSPASLSTYNDQSVSFVLENGCYVINVDDSGKDQEQDQVLLRYYESPCPASQSGDGVDGKKLMVNMSPIKDTDIWLHANDKDYSVELQRGDVSPPEQAFFVLHKKSSDFVSFECKNLPGTYIGVKDNQLALVEEKDESCNNIMFKLSKI
modifications: reduced (free cysteines, no disulfides), active form; limits not given, taken as the usual commercial mature mouse IL-33 (Ser109-Ile266, UniProt chain 109-266)
  Kd: 560 ± 100 pM
  stoichiometry N: 1
